Laboratory results taken from patent publication US20090298778A1.
Non-standard residues stand in square brackets, D forms with d. No end group written: not given here. Cit = NC(=O)NCCC[C@H](N)C(=O)O

B1: β60-74cit60, 72, 74 peptide (peptide)
peptide: [Cit]PAPPPISGGGY[Cit]A[Cit]-NH2
modifications: N-terminus assumed
SMILES: CC[C@H](C)[C@H](NC(=O)[C@@H]1CCCN1C(=O)[C@@H]1CCCN1C(=O)[C@@H]1CCCN1C(=O)[C@H](C)NC(=O)[C@@H]1CCCN1C(=O)[C@@H](N)CCCNC(N)=O)C(=O)N[C@@H](CO)C(=O)NCC(=O)NCC(=O)NCC(=O)N[C@@H](Cc1ccc(O)cc1)C(=O)N[C@@H](CCCNC(N)=O)C(=O)N[C@@H](C)C(=O)N[C@@H](CCCNC(N)=O)C(N)=O
B2: mixture of α36-50cit38, 42 and β60-74cit60, 72, 74 peptides (peptide)
peptide 1: GP[Cit]VVE[Cit]HQSACKDS
peptide 2: [Cit]PAPPPISGGGY[Cit]A[Cit]-NH2
modifications: also: mixture of two free peptides, not a complex
B3: α36-50cit38, 42 peptide (peptide)
peptide: GP[Cit]VVE[Cit]HQSACKDS

Key:
[1] = target: mixture of ACPA-positive IgGs (IgG fraction of an equal-parts mixture of 38 sera from patients suffering from RA having a high serum ACPA titer); test: cell-based or functional assay
[2] = target: mixture of ACPA-positive IgGs (IgG fraction of an equal-parts mixture of 38 sera from patients suffering from RA having a high serum ACPA titer); test: competition ELISA: soluble competitor preincubated 2 h with IgG ACPA+ (16 µg/ml), binding to coated citrullinated fibrinogen

| Binder | amount of TNF-α secreted by macrophages; peptide at 0.8 mg/ml as competitor of IC formation on coated citrullinated fibrinogen [1] | amount of TNF-α secreted by macrophages; peptide at 4 mg/ml as competitor of IC formation on coated citrullinated fibrinogen [1] | percentage inhibition (plateau value) [2] |
| --- | --- | --- | --- |
| B1 | 40 pg/mL | < 20 pg/mL | 60% |
| B2 | – | – | 70% |
| B3 | – | – | 15% |
